B1: target 1 C22G (mixed)
RNA 1: CACCCGUGCAAAAAUGCAGGGGUCUAAAACUGAGCGGAUAACCUCUCUAUGG
RNA 2: GGGAAUGGAUCCACAUCUACGAAUUCGUAGCAUAGAGAGGUUAUCCGCUCACCGAGAUCGGAAGAGCACACGU
B2: target 1 C6A,U10G (mixed)
RNA 1: B1 RNA 1
RNA 2: B1 RNA 2 with G30C, U42G, C46A
B3: target 1 insC 3' of 18,insA 3' of 6 (mixed)
RNA 1: B1 RNA 1
RNA 2: GGGAAUGGAUCCACAUCUACGAAUUCGUACCAUACGAGAGGUUAUCCAGCUCACCGAGAUCGGAAGAGCACACGU
B4: target 1 insU 3' of 14,insU 3' of 7 (mixed)
RNA 1: B1 RNA 1
RNA 2: B3 RNA 2 with C35G, G36A, A37G, G38A, A39U, C47U, A48C
B5: target 1 insA 3' of 12,insC 3' of 12 (mixed)
RNA 1: B1 RNA 1
RNA 2: GGGAAUGGAUCCACAUCUACGAAUUCGUACCAUAGAGAGGACUUAUCCGCUCACCGAGAUCGGAAGAGCACACGU
B6: target 1 insU 3' of 18,insA 3' of 6 (mixed)
RNA 1: B1 RNA 1
RNA 2: B3 RNA 2 with C35U
B7: target 1 insU 3' of 15,insG 3' of 14 (mixed)
RNA 1: B1 RNA 1
RNA 2: B5 RNA 2 with A38U, G39A, A41G, C42G
B8: target 1 C2U,C7A (mixed)
RNA 1: B1 RNA 1
RNA 2: B1 RNA 2 with G30C, C45A, C50U
B9: target 1 insC 3' of 14,insG 3' of 10 (mixed)
RNA 1: B1 RNA 1
RNA 2: B5 RNA 2 with G39C, A41G, C42U, U44G
B10: target 1 insA 3' of 6,insC 3' of 1 (mixed)
RNA 1: B1 RNA 1
RNA 2: GGGAAUGGAUCCACAUCUACGAAUUCGUACCAUAGAGAGGUUAUCCAGCUCACCCGAGAUCGGAAGAGCACACGU
B11: target 1 C6U,U10A (mixed)
RNA 1: B1 RNA 1
RNA 2: B1 RNA 2 with G30C, U42A, C46U
B12: target 1 insU 3' of 17,insU 3' of 15 (mixed)
RNA 1: B1 RNA 1
RNA 2: B5 RNA 2 with A36U, G37A, A38G, G39U, G40A, A41G, C42G
B13: target 1 insC 3' of 22,insA 3' of 12 (mixed)
RNA 1: B1 RNA 1
RNA 2: B3 RNA 2 with A32C, U33A, A34U, C35A, U42A, A44U, U45A, C46U, A48C
B14: target 1 C2A,A9C (mixed)
RNA 1: B1 RNA 1
RNA 2: B1 RNA 2 with G30C, A43C, C50A
B15: target 1 insU 3' of 12,insC 3' of 3 (mixed)
RNA 1: B1 RNA 1
RNA 2: B10 RNA 2 with A43U, U44A, C45U, A47C, A52C, C53A
B16: target 1 C2G,U8A (mixed)
RNA 1: B1 RNA 1
RNA 2: B1 RNA 2 with G30C, U44A, C50G
B17: target 1 insA 3' of 11,insU 3' of 4 (mixed)
RNA 1: B1 RNA 1
RNA 2: B5 RNA 2 with A41U, C42A, U44A, A45U, U46C, C48G, G49C, C50U
B18: target 1 insU 3' of 13,insC 3' of 3 (mixed)
RNA 1: B1 RNA 1
RNA 2: B10 RNA 2 with G40U, U41G, A43U, U44A, C45U, A47C, A52C, C53A
B19: target 1 insU 3' of 20,insA 3' of 19 (mixed)
RNA 1: B1 RNA 1
RNA 2: B5 RNA 2 with A34U, G35A, G40A, A41G, C42G
B20: target 1 insG 3' of 22,insC 3' of 15 (mixed)
RNA 1: B1 RNA 1
RNA 2: GGGAAUGGAUCCACAUCUACGAAUUCGUACGCAUAGAGCAGGUUAUCCGCUCACCGAGAUCGGAAGAGCACACGU
B21: target 1 insU 3' of 2,insG 3' of 1 (mixed)
RNA 1: B1 RNA 1
RNA 2: B10 RNA 2 with A47G, G48C, C49U, U50C, C51U, C53G
B22: target 1 insA 3' of 19,insC 3' of 15 (mixed)
RNA 1: B1 RNA 1
RNA 2: B20 RNA 2 with G31C, C32A, A33U, U34A
B23: target 1 insG 3' of 8,insU 3' of 2 (mixed)
RNA 1: B1 RNA 1
RNA 2: B10 RNA 2 with C45G, A47C, A52U, C53A
B24: target 1 insG 3' of 16,insC 3' of 15 (mixed)
RNA 1: B1 RNA 1
RNA 2: B5 RNA 2 with A38G, G39C, G40A, A41G, C42G
B25: target 1 insG 3' of 6,insC 3' of 5 (mixed)
RNA 1: B1 RNA 1
RNA 2: B10 RNA 2 with A47G, U50C, C51U, A52C, C53A
B26: target 1 insA 3' of 11,insA 3' of 10 (mixed)
RNA 1: B1 RNA 1
RNA 2: B5 RNA 2 with A41U, C42A, U44A
B27: target 1 insU 3' of 20,insA 3' of 15 (mixed)
RNA 1: B1 RNA 1
RNA 2: B20 RNA 2 with G31C, C32A, A33U, C39A
B28: target 1 insG 3' of 21,insA 3' of 4 (mixed)
RNA 1: B1 RNA 1
RNA 2: B3 RNA 2 with A32G, U33A, A34U, C35A, A48G, G49C, C50A
B29: target 1 insA 3' of 13,insU 3' of 4 (mixed)
RNA 1: B1 RNA 1
RNA 2: B3 RNA 2 with C35G, G36A, A37G, G38A, A39G, G40A, A48G, G49C, C50U
B30: target 1 G5C,C22A (mixed)
RNA 1: B1 RNA 1
RNA 2: B1 RNA 2 with G30A, G47C
B31: target 1 insC 3' of 22,insG 3' of 16 (mixed)
RNA 1: B1 RNA 1
RNA 2: B20 RNA 2 with G31C, C39G
B32: target 1 insU 3' of 7,insU 3' of 2 (mixed)
RNA 1: B1 RNA 1
RNA 2: B10 RNA 2 with C46U, A47C, A52U, C53A

Substitutions are numbered along the chain they refer to. Names and notes keep the numbering of the source.

The data set has as its target T1, EsCas13d, nuclease-dead (Eubacterium siraeum, UniProt B0MS50, R295A;H300A;R849A;H854A).
T1 sequence: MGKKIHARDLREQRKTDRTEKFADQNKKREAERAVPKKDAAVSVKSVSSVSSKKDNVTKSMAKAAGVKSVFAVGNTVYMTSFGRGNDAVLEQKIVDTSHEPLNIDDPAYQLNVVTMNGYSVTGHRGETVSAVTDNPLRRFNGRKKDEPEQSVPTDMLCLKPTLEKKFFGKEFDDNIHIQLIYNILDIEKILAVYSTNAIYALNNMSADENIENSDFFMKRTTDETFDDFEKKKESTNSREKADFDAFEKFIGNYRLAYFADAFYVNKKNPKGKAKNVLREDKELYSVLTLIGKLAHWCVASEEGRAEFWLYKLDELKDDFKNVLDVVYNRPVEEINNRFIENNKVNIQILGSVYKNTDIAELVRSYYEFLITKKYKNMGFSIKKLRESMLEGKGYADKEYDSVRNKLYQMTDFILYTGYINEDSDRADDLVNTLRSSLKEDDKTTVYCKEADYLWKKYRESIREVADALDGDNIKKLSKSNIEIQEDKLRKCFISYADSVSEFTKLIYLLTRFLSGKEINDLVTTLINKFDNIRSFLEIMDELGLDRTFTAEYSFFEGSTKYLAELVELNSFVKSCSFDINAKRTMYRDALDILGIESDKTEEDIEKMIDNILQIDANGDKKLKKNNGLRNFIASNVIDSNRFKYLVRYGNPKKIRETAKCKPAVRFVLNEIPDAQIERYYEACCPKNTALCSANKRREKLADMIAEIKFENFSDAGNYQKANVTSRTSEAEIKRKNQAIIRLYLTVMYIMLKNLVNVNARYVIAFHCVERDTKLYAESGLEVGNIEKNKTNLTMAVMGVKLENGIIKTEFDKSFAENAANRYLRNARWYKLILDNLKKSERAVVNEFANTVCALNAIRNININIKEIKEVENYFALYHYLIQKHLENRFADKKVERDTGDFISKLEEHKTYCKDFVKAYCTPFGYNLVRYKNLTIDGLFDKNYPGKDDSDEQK
The experiment in a line: crRNA (strand 1, pre-loaded); Mg2+; 40 mM Tris-HCl pH 7.5, 150 mM NaCl, 6 mM MgCl2, 1 mM DTT, 0.1% Tween-20, 0.2 mg/ml BSA; 25 C; 10 min per concentration, then washed. The following applies: tags: His6-TwinStrep-SUMO cleaved; N-terminal SNAP kept (SNAP-Surface 488); label: 3' end held by stalled T7 RNA polymerase.
For B1, the dissociation constant (Kd) was 61 ± 11 nM.
The value for B2 was 13.9 ± 0.7 nM.
Then B3, with 32.3 ± 1.5 nM; and B4, with 77 ± 9 nM; and B5, with 30.4 ± 1.8 nM.
B6 had a Kd of 32.6 ± 1.1 nM.
Consider B7, for which binding was put at a Kd of 22.5 ± 2.2 nM. This Kd and that of the molecule before are within 1.5-fold of each other.
Then B8, with 6.8 ± 0.5 nM; and B9, with 43 ± 10 nM.
The value for B10 was 17.6 ± 1.1 nM; that for B11 was 9.8 ± 0.4 nM.
For the molecule B12, the Kd was determined as 64 ± 28 nM.
The value for B13 was 42 ± 5 nM.
With B14, binding was characterised by a dissociation constant (Kd) of 12.2 ± 0.4 nM.
The value for B15 was 8.3 ± 0.6 nM.
Molecule B16 gave a Kd of 13.5 ± 0.8 nM. Compared with the last molecule, the Kd is about 1.6-fold higher.
Then B17, with 13.7 ± 0.9 nM; and B18, with 25 ± 5 nM; and B19, with 20.9 ± 1.4 nM.
B20 came in with a Kd of 48 ± 4 nM.
B21 came in with a Kd of 12.2 ± 0.6 nM.
B22 yielded a Kd of 52 ± 9 nM. This Kd is about 4.3-fold higher than that of the molecule before.
Then B23, with 15.1 ± 0.6 nM.
Then B24, with 28.8 ± 2.1 nM; and B25, with 13.9 ± 1.1 nM; and B26, with 9.4 ± 0.5 nM.
B27 showed a Kd of 7.6 ± 0.5 nM.
Then B28, with 41 ± 10 nM; and B29, with 3.45 ± 0.26 nM.
B30 displayed a Kd of 17.3 ± 1.9 nM.
In turn, B31 had a Kd of 75 ± 21 nM.
The value for B32 was 21.3 ± 1.1 nM.
